Data as given in paper PMC4243058.

Biological target: Fzd2 pTyr552 peptide (phosphorylated 18-mer)
Test: SPR

Substance: GST-FynSH2 (SH2 domain of Fyn) (from UniProt P06241 149-246) (domain or fragment)
- Kd: 2.1 nM
